For this data set, the system named is ATP. Briefly: switch fluorescence ratio, 500 uM ATP over buffer (Cy3 cluster intensity, sum of 5 cycles each) (fold (ratio)); higher = stronger signal-on switching upon ATP binding; sequences stand for … in TCGTCGGCAGCGTCAGATGTGTATAAGAGACAGTTTTTTTTTTTTTTTTTTTTTTTTT…TC. The note with it: aptamer strand: ATP DNA aptamer (quencher-CACCTGGGGGAGTATTGCGGAGGAAGG + anchor), 100 nM annealed; ATP concentration: 500 uM. In outline: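 Exposure to 500 uM ATP lasted 15 min at 22 °C before imaging, and a selection-buffer image was taken beforehand, for Cy3-labelled switching-strand clusters on a modified Illumina MiSeq flow-cell annealed to 100 nM quencher-labelled ATP aptamer. Five buffer/ATP cycles were run with NaOH stripping and re-annealing between them. The fluorescence ratio per cluster is summed target-cycle over summed buffer-cycle Cy3 intensity, averaged per switch-domain sequence. Clusters outside 100-1000 RFU were excluded.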

± gives the standard deviation of the averaged measurements.

ATGTGGGGAC: the switch fluorescence ratio was found to be 1.01 ± 0.084.

Regarding ATGTGGGGGG, the switch fluorescence ratio is 0.992 ± 0.039. The result for ATGTGGTCT reads 1.02 ± 0.03; that for ATGTGTAAAG, 0.98 ± 0.017; that for ATGTGTCTAT, 0.998 ± 0.036. The value for ATGTTAAACG was 1.007 ± 0.0024; that for ATGTTAGAAA was 1.02 ± 0.032; that for ATGTTAGGG was 0.98 ± 0.011. The value for ATGTTAGGTT was 1 ± 0.029. In the case of ATGTTATGAA, the switch fluorescence ratio is 1.06 ± 0.11.

Take ATGTTCACGG: the switch fluorescence ratio was found to be 1.01 ± 0.033. The value for ATGTTGAGCT was 1.019 ± 0.0023; that for ATGTTGGGAC was 1.02 ± 0.032.

For ATGTTGTCGG, the switch fluorescence ratio was determined as 0.987 ± 0.022. On to ATGTTGTTGG, for which the switch fluorescence ratio was 0.9676 ± 0.007. The result for ATGTTTAATC reads 0.986 ± 0.023; that for ATGTTTATAG, 0.98 ± 0.024.

For ATGTTTCTGA, the switch fluorescence ratio is 0.9851 ± 0.0032. The value for ATGTTTTATA was 1.02 ± 0.023. The result for ATGTTTTCTC reads 0.993 ± 0.013; that for ATGTTTTCTT, 0.998 ± 0.016; that for ATGTTTTTAC, 0.949 ± 0.029.

ATGTTTTTTG: the switch fluorescence ratio was 0.982 ± 0.023. On to ATTAAAAGA, for which the switch fluorescence ratio was 1.01 ± 0.023. The value for ATTAAAAGGA was 0.991 ± 0.073; that for ATTAAAAGTG was 0.986 ± 0.013. Consider ATTAAAATAC, for which the switch fluorescence ratio is 1.09 ± 0.11. The value for ATTAAAGTGC was 0.999 ± 0.027. On to ATTAAATATC, for which the switch fluorescence ratio came to 1.03 ± 0.024.

On to ATTAAATGGG, for which the switch fluorescence ratio was determined as 0.976 ± 0.036.

Consider ATTAAATTCG, for which the switch fluorescence ratio was determined as 1 ± 0.017. Consider ATTAAATTTT, for which the switch fluorescence ratio came out at 1.01 ± 0.032.

On to ATTAACTGCT, for which the switch fluorescence ratio turned out to be 0.9932 ± 0.0058. The value for ATTAAGCGGC was 1.05 ± 0.13; that for ATTAAGGA was 1 ± 0.051. The value for ATTAAGGTCG was 1.07 ± 0.023; that for ATTAAGGTGC was 1.31 ± 0.075.

As for ATTAAGTGTT, the switch fluorescence ratio came out at 0.984 ± 0.042. The result for ATTAATAGG reads 0.997 ± 0.026; that for ATTAATGGGT, 1.02 ± 0.027; that for ATTAATGTTG, 1.054 ± 0.0067. The value for ATTACAACGA was 1.015 ± 0.0032. The value for ATTACATGTA was 0.9871 ± 0.0098; that for ATTACGAAGA was 1.01 ± 0.011; that for ATTACGCTGG was 1.01 ± 0.024. In the case of ATTACTCTAC, the switch fluorescence ratio is 1.27 ± 0.025. The value for ATTACTTTTT was 1 ± 0.027.

Regarding ATTAGAAGGT, the switch fluorescence ratio is 0.994 ± 0.051.

As for ATTAGATGAC, the switch fluorescence ratio was 1.02 ± 0.016. The value for ATTAGCACGT was 1.023 ± 0.0031. As to ATTAGCCCGG, the switch fluorescence ratio was 0.9944 ± 0.00051. The value for ATTAGCGAGA was 1.028 ± 0.0035. The result for ATTAGGAAAG reads 0.998 ± 0.028; that for ATTAGGACGT, 0.984 ± 0.032. The result for ATTAGGGTCT reads 0.986 ± 0.025. For the sequence ATTAGGTTTC, the switch fluorescence ratio is 1.01 ± 0.062. Turning to ATTAGTAAGA, the switch fluorescence ratio is 0.975 ± 0.011. The value for ATTAGTCCGG was 0.994 ± 0.03; that for ATTAGTCGCG was 1.01 ± 0.014. The result for ATTAGTCGCT reads 0.978 ± 0.019. The result for ATTAGTGTCA reads 1 ± 0.035; that for ATTAGTGTCG, 1.01 ± 0.046; that for ATTAGTGTGG, 1 ± 0.033. Turning to ATTAGTTCCG, the switch fluorescence ratio amounted to 0.9814 ± 0.0025. The result for ATTATAAGGT reads 1.06 ± 0.0055. The value for ATTATACAGC was 0.993 ± 0.025. The result for ATTATACTGG reads 1 ± 0.033; that for ATTATATCCC, 1.06 ± 0.026; that for ATTATATGGT, 0.98 ± 0.029.

ATTATCGTAG: the switch fluorescence ratio came to 0.994 ± 0.035. As to ATTATCTAAT, the switch fluorescence ratio is 1 ± 0.017. For ATTATGGACG, the switch fluorescence ratio is 1.06 ± 0.073.

With ATTATGGGGG, the switch fluorescence ratio came to 0.996 ± 0.036.

In the case of ATTATGGGT, the switch fluorescence ratio worked out at 0.9931 ± 0.0086. The result for ATTATGGTTC reads 1 ± 0.021; that for ATTATGTCTT, 0.9878 ± 0.0094; that for ATTATTATGG, 1.01 ± 0.015. The result for ATTATTGATA reads 0.997 ± 0.036; that for ATTATTGGCA, 0.999 ± 0.0024. The value for ATTATTGGGC was 0.981 ± 0.035; that for ATTATTTTAC was 0.976 ± 0.036.

On to ATTCAACGGT, for which the switch fluorescence ratio was found to be 1.02 ± 0.0048. The value for ATTCAAGCCT was 1.15 ± 0.047; that for ATTCACATAT was 1.11 ± 0.02; that for ATTCACGGGC was 1.08 ± 0.035. The result for ATTCAGAGTG reads 0.965 ± 0.02; that for ATTCAGATCG, 0.999 ± 0.034. The value for ATTCAGTTAT was 0.997 ± 0.021; that for ATTCAGTTGG was 0.9776 ± 0.0071. Regarding ATTCATAGGT, the switch fluorescence ratio amounted to 0.992 ± 0.014. The result for ATTCATGCTC reads 1.03 ± 0.031; that for ATTCATTGTC, 1.09 ± 0.11. The result for ATTCCAAGTG reads 1.03 ± 0.056; that for ATTCCCGGGG, 1.06 ± 0.059; that for ATTCCCGGTC, 1.01 ± 0.066.

Take ATTCCGATTG: the switch fluorescence ratio is 1.07 ± 0.031. The value for ATTCGGAATA was 1.06 ± 0.016.

On to ATTCGGGAAG, for which the switch fluorescence ratio was 1.003 ± 0.0078. The value for ATTCGGGACC was 0.973 ± 0.019; that for ATTCGGGGGT was 0.993 ± 0.023. The result for ATTCGGTCGA reads 0.976 ± 0.039; that for ATTCGTTCGA, 0.9955 ± 0.0033. The result for ATTCGTTTGT reads 0.9869 ± 0.0038; that for ATTCTACGGA, 1.02 ± 0.021; that for ATTCTAGGA, 0.985 ± 0.02. Regarding ATTCTAGGTA, the switch fluorescence ratio amounted to 1 ± 0.015. Regarding ATTCTATATC, the switch fluorescence ratio was found to be 0.97 ± 0.021. The value for ATTCTCGTGG was 0.997 ± 0.036; that for ATTCTGATGC was 1.05 ± 0.0092. The value for ATTCTGCGGA was 1.01 ± 0.019.

With ATTCTGGGGA, the switch fluorescence ratio was 0.988 ± 0.026. The result for ATTCTGGTGG reads 1.01 ± 0.046.

For ATTCTTTACA, the switch fluorescence ratio stood at 1.06 ± 0.014.

As to ATTCTTTTGC, the switch fluorescence ratio stood at 1.03 ± 0.06. The result for ATTGAAATCA reads 0.987 ± 0.018; that for ATTGAACGGA, 1 ± 0.059; that for ATTGAAGCCT, 1.15 ± 0.013. The value for ATTGAAGGCA was 0.966 ± 0.011; that for ATTGAAGTGC was 1.01 ± 0.02. As for ATTGAATAGG, the switch fluorescence ratio turned out to be 1.0089 ± 0.0003.
